We go through 1 molecule from article PMC10164398.

Assay in all cases: EMSA
Data set [1] concerns the target NS1 (89-237) effector domain;eIF4E;eIF4G1 (88-653) (Influenza A virus (H3N2);human;human, UniProt P03495;P06730;Q04637 89-237;1-217;88-653, ||).
In data set [2] the target is NS1 (89-237) effector domain (Influenza A virus (H3N2), UniProt P03495 89-237).
Data set [3] concerns the target eIF4E;eIF4G1 (88-653) (human;human, UniProt P06730;Q04637 1-217;88-653, |).

eIF4E;eIF4G1 (88-653), sequence (P06730 whole entry, chain 1 of 2): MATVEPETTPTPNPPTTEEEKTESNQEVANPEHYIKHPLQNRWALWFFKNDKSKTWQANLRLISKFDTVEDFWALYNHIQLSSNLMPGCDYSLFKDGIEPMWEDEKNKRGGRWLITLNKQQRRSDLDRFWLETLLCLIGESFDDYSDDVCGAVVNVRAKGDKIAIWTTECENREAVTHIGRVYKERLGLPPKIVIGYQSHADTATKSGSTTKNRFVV
eIF4E;eIF4G1 (88-653), sequence (Q04637 88-653, chain 2 of 2): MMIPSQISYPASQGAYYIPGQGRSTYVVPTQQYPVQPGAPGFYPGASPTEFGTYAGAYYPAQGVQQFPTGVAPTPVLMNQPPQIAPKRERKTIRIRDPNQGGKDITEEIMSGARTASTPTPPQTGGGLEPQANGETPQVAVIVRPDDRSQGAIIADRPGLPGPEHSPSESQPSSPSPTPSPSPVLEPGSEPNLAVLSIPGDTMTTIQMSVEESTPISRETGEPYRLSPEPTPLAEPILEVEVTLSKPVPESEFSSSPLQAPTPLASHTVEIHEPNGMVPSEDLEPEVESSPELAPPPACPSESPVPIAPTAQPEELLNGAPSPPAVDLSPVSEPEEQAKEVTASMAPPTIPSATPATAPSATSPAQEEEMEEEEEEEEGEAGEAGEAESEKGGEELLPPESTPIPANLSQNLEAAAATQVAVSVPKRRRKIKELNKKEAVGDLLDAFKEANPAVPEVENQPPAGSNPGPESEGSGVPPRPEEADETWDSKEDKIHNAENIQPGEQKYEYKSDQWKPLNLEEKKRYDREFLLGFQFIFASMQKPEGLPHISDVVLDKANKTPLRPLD
NS1 (89-237) effector domain, sequence (P03495 89-237): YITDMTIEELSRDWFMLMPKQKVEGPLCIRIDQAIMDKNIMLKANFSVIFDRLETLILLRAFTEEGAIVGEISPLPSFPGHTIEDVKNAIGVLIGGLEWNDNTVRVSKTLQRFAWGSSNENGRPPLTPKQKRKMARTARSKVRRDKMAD
NS1 (89-237) effector domain;eIF4E;eIF4G1 (88-653), sequence (P03495 89-237, chain 1 of 3): as the sequence (P03495 89-237) above
NS1 (89-237) effector domain;eIF4E;eIF4G1 (88-653), sequence (P06730 whole entry, chain 2 of 3, the tested form may be a part): as the sequence (P06730 whole entry, chain 1 of 2) above
NS1 (89-237) effector domain;eIF4E;eIF4G1 (88-653), sequence (Q04637 88-653, chain 3 of 3): as the sequence (Q04637 88-653, chain 2 of 2) above

On to GGGUGACAGUCCUGUUU (ssRNA, 5' m7G cap (vaccinia capping)) [5'-m7G-mRNA], for which the values for the binding result in data set [1], in data set [2] and in data set [3] were “binds”, “no binding” and “binds”, respectively.
